Assay results as given in article PMC10747088, “Self-Penetrating Oligonucleotide Derivatives: Features of Self-Assembly and Interactions with Serum and Intracellular Proteins”.

Target: human serum albumin (HSA) (Homo sapiens, UniProt P02768 25-609)
Test: fluorescence titration (FAM); PBS; 10 uM oligomer; HSA Kd: 10 uM oligomer, PBS, 30 min, 25 C (Methods) or 37 C (Figure S7); HSA EMSA: TA/TAM buffer, 1 h, native 8% PAAG at 37 C; Ku/PARP1 EMSA: 50 mM Tris-HCl pH
Conditions: protein: commercial, label: 5'-FAM, single strand, micelles

Sequence of human serum albumin (HSA) (P02768 25-609): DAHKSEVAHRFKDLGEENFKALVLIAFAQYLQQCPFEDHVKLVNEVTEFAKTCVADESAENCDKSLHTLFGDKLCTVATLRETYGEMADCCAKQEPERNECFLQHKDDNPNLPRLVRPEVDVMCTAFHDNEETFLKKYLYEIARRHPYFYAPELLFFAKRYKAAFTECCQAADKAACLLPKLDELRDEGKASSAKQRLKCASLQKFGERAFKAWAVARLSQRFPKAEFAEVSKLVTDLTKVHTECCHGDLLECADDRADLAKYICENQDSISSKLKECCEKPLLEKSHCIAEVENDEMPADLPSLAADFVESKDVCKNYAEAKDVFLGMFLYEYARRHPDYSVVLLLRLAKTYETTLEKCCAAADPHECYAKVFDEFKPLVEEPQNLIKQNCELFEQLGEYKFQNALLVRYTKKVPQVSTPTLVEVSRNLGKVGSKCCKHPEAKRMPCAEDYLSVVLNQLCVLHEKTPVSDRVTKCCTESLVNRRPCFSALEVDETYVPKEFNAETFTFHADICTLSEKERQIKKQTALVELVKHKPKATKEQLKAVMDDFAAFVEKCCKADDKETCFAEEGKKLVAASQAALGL

B1: FAM-TZD16 (FAM-TZ16) (ssDNA)
DNA: CTGACTATGAAGTATT
modifications: triazinyl phosphoramidate with two dodecyl groups at the last internucleotide phosphate (T15*T16)
Kd: 1500 ± 100 nM

B2: FAM-TZD17 (FAM-TZ17) (ssDNA)
DNA: AGTCTCGACTTGCTATT
modifications: triazinyl phosphoramidate with two dodecyl groups at the last internucleotide phosphate (T16*T17)
Kd (can form weak hairpin or self-dimers): 1200 ± 200 nM
